The record followed here is a protein production outcome set (Wang et al. 2014).

A short description of this data set: label from the status in PepcDB records.
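Further: failed if final PepcDB status was selected cloned or expressed and not failed if soluble or beyond.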

Regarding “MADQSFAVLGLGKFGMALTVALLKAEQDVLVIDSNEEVINDVAHLVTHAVIADATDEDELRDLDIGSFDHVFVTMGENVEGSIITTMLAKKLGAPDVTTRANNHNHRLVLEKIGADHVIEPEQDMARQLIFRQLHPNVVNYFNLSKNISLIEVSVENSRFFNQSLGDLDFRKNYDVSVIGIVHDGKLNQVPLATDVIAPHDQITLIGSNKAVQRLDDILREEK”, the protein production entry is reported as “failed”.

Turning to “MADRLIVRGAREHNLKNVSLDLPRDSLIVFTGLSGSGKSSLAFDTIFAEGQRRYVESLSSYARQFLGQMDKPDVDFIEGLSPAVSIDQKSTSRNPRSTVGTITEVYDYLRLLFARIGKPHCPECGRPISRQSPQAIVDKVLELPEGSRFQVLSPLVRERKGEFVDLFADLQTKGYSRARVDGETVQLSNPPTLKKQEKHTIEVVVDRLTVKDSAKRRLTDSVETALGLSGGMVVLDFVDLPEDDPERERMYSEHLYCPYDDLSFEELEPRSFSFNSPFGACPDCSGIGTRMEVDAELIVPDEDKSLDEGAIHPWSHGHTKDYFGRLIGALADALGFRTDIPFAGLPLRARKALLYGHKTQVEVRYRNRYGRERRYTTAFEGAIPFVKRRHSEAESDASRERFEGYMREVPCPTCQGTRLKPLVLAVTVMGKSIAEVSAMSISDCADFLGELTLNARDKKIAERVLKEVNERLRFLVDVGLDYLSLNRAAGTLSGGEAQRIRLATQIGSGLVGVLYVLDEPSIGLHQRDNHRLIETLVRLRDMGNTLIVVEHDEDTIKVADWIVDIGPGAGEHGGKVVHSGSVKELLDNAESQTGLYLSGRKAIPLPDIRRPQDPSRRLTVHGARENNLQDIDVSFPLGVFTAVTGVSGSGKSTLVNDILYTHLARELNGARNVPGRHTRVDGDDLVDKVVHVDQSPIGRTPRSNPATYTGVFDHIRKLFAETTEAKVRGYLPGRFSFNVKGGRCENCAGDGTIKIEMNFLPDVYVPCEVCHGARYNRETLEVHYKGKSIADVLNMPIEEATDFFEAVPAISRHMKTLKDVGLGYVRLGQSATTLSGGEAQRVKLASELQRRSTGRTVYVLDEPTTGLHFEDISKLLTVLGGLVDKGNTVIVIEHNLDVIKTADWVVDMGPEGGAGGGLVVAEGTPEQVAGVPASHTGKFLRDVLGADRVSDAAPVTRPRKAAKTVAAKAAAKKTATKTVTGTAAKKATATRTAKTAVKKAAKPAAKKTTRTSKA”, the protein production result is “failed”.

Take “MADSENMYILSEDEDVCPTCLEEYTSENPKIVTKCSHHFHLSCIYEWMERSENCPVCGKVMEFNETP”: the protein production entry was “failed”.

For the sequence “MADSRPRLVTGSPEGYPGHVDGRLRDARLNNPKGLTVDDRGNIYVADTVNNAIRKISEAGVTTIAGGKMVRGGGHVDGPSEDAKFSNDFDVVYLGSSCSLLVIDRGNQAIREIQLHFDDCADQYGSGFPLGIAVLVAAVFFGYMLALLQRRLSSIVSYHTDQEVFEAVPDQDPIKPVRPPLILTGDEQEKQEESFLGTLQIFISNAWVFSVELFSGMFPGLRKKQTVGLNFNHQETKHSAFSTTSWPIQESFVIHNKDEPPPVESRNATPGKIYPFMSKDATEKMQQLRQSRALYRSLDAEFLQEQQQEKHQQYHHRHHSTIPYTLYEQSSEKTNEIVFGPGQEQDQMNTHQNIHHRAHQFVSYPYGYYS”, the protein production result was “failed”.

On to “MADVATKHPMEDEVKKTEASSLVGKLETDVEIKASADKFHHMFAGKPHHVSKASPGNIQGCDLHEGDWGTVGSIVFWNYVHDGEAKVAKERIEAVEPDKNLITFRVIEGDLMKEYKSFLLTIQVTPKPGGPGSIVHWHLEYEKISEEVAHPETLLQFCVEVSKEIDEHLLAEEEEVKTPETPSLVGKLETDVEIKASAEKFHHMFAGKPHHVSKASPGNIQGCDLHEGDWGQVGSIVFWNYVHDREAKVAKERIEAVEPNKNLITFRVIDGDLMKEYKSFLLTIQVTPKLGGPGSIVHWHLEYEKISEEVAHPETLLQFCVEVSKEIDEHLLAEE”, for which the protein production entry is listed as “failed”.

Take “MADVENQQDSSFPVKRKSDLFCQDQDNVTNKAQKLNPSLNSADSESKDGETNGSGQIENLNSSTEETIGAESSVLSEKAAEEVESGVIGDVGAEEEQEDEEDEEEDDEEEEEEEEVVDRKGKGISREDKGKGKMIEVEESDDEDDSDDDEDDEGFDEDDESDFSDDPLAEVDLDNILPSRTRRRSSQPGVFIPNEFSNRHVNDEDDESSDSDA”: the protein production entry is “failed”.

As for “MAEASSLVGKLETEVEIKASAKKFHHMFTERPHHVSKATPDKIHGYGKLTVGKNKIEAVDPEKNLITFKVLEGDLMNEYKSFAFTLQVTPKQGESGSIAHWHLEYEKISEEVAHPETLLQFCVEISKEIDEHLLAEE”, the protein production entry is recorded as “failed”.

Take “MAEDFSVVVLASDLGIDARPFLTRSDDVDEQENWHDCPQYLGDEDFSDLDLLQFFTLQGLDRSGNRIFRIVGKYFPARVVSAERLKKYISQKISNQCPEGPLCLVYMHSTVQKDDNSPGITILRWIYEDLPSDIKDRLQLVYFIHPGLRSRLVIATLGRLLLSGGLYWKIKYVSRLQYLWEDIKKGEVEIPDFVKNHDNVLEHRPLTDYGIEPDPFQLSEVQSSSFSLNRYENRWVS”: the protein production entry is “failed”.

With “MAEEQEIVDSLSAEVNPDQKVDMEVETATPKAETGDEKREREETEEEENGGESKKQKVGEEEKSGPVKLGPKEFVTSVAMFDYFVKFLHFWPTDLDVNKYEHMVLLDLIKKGHSEPEKKIGGGIKTFQVRTHPMWKSRCFFLVREDDTADDFSFRKCVDQILPLPENMKTPGANGNGHGGGRGGGGGRRGGRGGGRGGRFRR”, the protein production result was “failed”.

With “MAEERHHTEHIPQWKKDEIENIKELIQSHKVFGMVRIEGILATKIQKIRRDLKDVAVLKVSRNTLTERALNQLGESIPEMTRYLDNQTALIFTNESPFKLYKLLEQTKTPSPIKAGAIAPEDIIVQKGPTSFPPGPILGELQSAGIPASIDAGKVAVKETKVVCKAGEAVPQKLATMLSKLEIYPLIVGLDLRAAYDDGTIYEPELLAVDESKYFSDIIRAAQNAFNLSVNTAYPTGATIGTLLAKAYAESKSLGVNAVILEPGVMDSLLAKAHVQMTSVASEAAEKDANAVDDDLREVLGAAASAAAAATVAAPAAEEEKKEEEPEEEEEDHAEEDGMAGLGALFGLEHHHHHH”, the protein production result is “not failed”.

Turning to “MAEERRIDWSSLWKKEDWWAFWLGMLLFVLCLATAYGADIMGWVVKSSTWVDVSKAMGPTSKNFAYLGPIGSFVVSWLVLLILTTIGAVAMGWKGGKFAAAFTVIFILTWICWVIGHNAYIAATDPAKAGVPWSLRMTGEAGYIFALILGLIIGNFFKGFANWLKEAAKPEWFIKTAIVLLGAVVGIKAPTIPPEILYNYLFRGLCAIVEAYLIYWALVYWVARRYFGFSREWAAPLASGISICGVSAAIATGGAIRARPVVPVMVASLVIVFAVVELLFLPFLAATFLQHQPLVAGAWMGLAVKTDGAATASVKWLKL”, the protein production entry is “failed”.

As to “MAEGGGCRERPDAETQKSELGPLMRTTLQRGAQWYLIDSRWFKQWKKYVGFDSWDMYNVGEHNLFPGPIDNSGLFSDPESQTLKEHLIDELDYVLVPTEAWNKLLNWYGCVEGQQPIVRKVVEHGLFVKHCKVEVYLLELKLCENSDPTNVLSCHFSKADTIATIEKEMRKLFNIPAERETRLWNKYMSNTYEQLSKLDNTVQDAGLYQGQVLVIEPQNEDGTWPRQTLQSKSSTAPSRNFTT”, the protein production entry was “failed”.

For the sequence “MAEITEKVLKKPNAIPDVFERKGGSAPTATHYCAGCGHGIIHKLMAEAIDELEIQDRCVLISPVGCAVFAYYYFDCGNIQVAHGRAPAVGTGVSRAEDNAIVMSYQGDGDLASIGLNETIQAANRGEKMAVFFVNNTVYGMTGGQMAPTTLIGEKTVTCQTGRDPRFAGYPIHMCELLSSLKAPVFIERVSVSDIAHIRKAKRAIKKALEIQRDGKGYAFVEILSPCPTNLRQDANAAQKFINEEMEKEFPLQNFRDRSAEVETLNRGESDFSKECLDNIFEVNSKGAEDPSEDLSFEEKLVKIAGFGGQGVLSMGLTLAEAACRDQKYVSWYPSYGPEQRGGTSNCSVIISGHEIGSPVVYSPGVLIALNKPSLENFAKDVKTGGTIIYDENIGDFEIPNGVTAIKVPASKIATEMGVSRAANTVMLGVLSALGYTGLSESVFVGAIEQTFSKKPKLIPINVEILNAGISWAKENLAL”, the protein production entry is “failed”.

“MAEKTYSGFVAIVGKPNVGKSTLLNNLLGVKVAPISPRPQTTRKRLRGILTEGRRQIVFVDTPGLHKPMDALGEFMDQEVYEALADVNAVVWVVDLRHPPTPEDELVARALKPLVGKVPILLVGNKLDAAKYPEEAMKAYHELLPEAEPRMLSALDERQVAELKADLLALMPEGPFFYPEDYAKSDQTFGEWVAEILREEAMKRLWHEVPYAVATKVEEVAERENGVLYIKAILYVERPSQKAIVIGEGGRKIKEIGQATRKQLEALLGKKVYLDLEVKVYPDWRKDPEALRELGYRSSVG”: the protein production entry is listed as “not failed”.

In the case of “MAELFIPDEPIIEVTAVLSAILILVLVLPFKVRIVEENLEAFFFIMGLLGVATIYYYGILPTPDSLIGLFIKAFKTPLAIAHVGPIPIGIVQAVVFFGLVFYFFHKHIYSILASTMEKVGIPVFAFILTFLLGLISSVISVIVTAVILAEIAAALNISRERKVKYVVYASFAVGIGAALTPLGEPLSTIAISKLNAHFTYLIDILGVYIVPGIAVSAVAAAYSLRGEVYREGLVKFVYEESINEILLRGFRVFLFVAALELLGASFTPMVKWYFAQLPSWALYWINTISAVVDNATLTAAEMGPFLTEEQIRSALMSLLISGGMLIPGNIPNIVAAGRLRITMNEWARVGVPFGIALLLAYFIVIEVLDIHITLSF”, the protein production entry is listed as “failed”.

As for “MAEQEDIILEKPEDGLNQPRLDESLEGFKGQEGQAPEDEEFASLPEELPQENSESGFKFTRESAPEDVSTFEEVESQEPTPWYKDRKFMSLVGLSLGIICILVFTLFYLTFSEGKIKPDIIASKPLEQPVIMPDESYKYNDMQRIDGMIQKANALYLKGEVEQALKVYEQVAVYNESLSNYNLGVSQMNENKFQEAFESFKKAIANGENQSVAAINAAVCALKLNDKEKFRYYIDLAQVYLPKEGKSKLYDYYLSLINYYKGYYPEALQMLQRTDVEPYSDVAKYLSAKIYAKMDFDSKAIQQLNSQGNFESSLSLGLLYARIGEYAKAKVALSTAMKIERDFNQSLAALTLVDIKTGNYQDMLARLQNSYDNDKDRYKILDTYKIQVRLNKDLFNIAVAQNSFSKDLLKKQKDQFDLLFYFAPYQVFDSKQAALYIKKANVTDFVDDSTDAGIYLNISKALSSTNVKIANIINYALNQKLRLANQEFQKLIKDYPEHSILHYNLALTYAQMQNYELAYKHFSSSYHLNPKNYLAGAFAMFCAKLIDIDTTKLYNEILDNIAADSNFKANMQKSMLFLVNNNYISMLPYLDETKKDTPLSLIFEAIVAKNNNLNNQVDVKIAKLRSELPEDILANILYFNSLNSNLNIKEYAQNAQIHFKNLKLDYRSVFGGPNIAREFYVNLMHIAGLLNLERQKFKELINVSGAKDEGILQTLAYLDIFAQQYEEAYALYNSLIDDYGAKDTKTLFLAAVAAVGANNPNSAIALLQLSKLTDKNNKESKAALGMLYQEVKNYEAAISQYKTLPNNFKSEFFTFDINNN”, the protein production entry is on record as “failed”.

“MAERSFSQLPISSSHIGRRTGNTRRGIFPVSEYWIHAIPVIVFLCFFTLWIFSHSVSVMNDGEIMSIHRLEKSMAVRNESHVSLAILASSAVSPASSALVAVVSTNQNLTTFHNATQSQQNATQSVNKAKQPHAV”: the protein production result is recorded as “not failed”.

With “MAESLITKKAIAGGLMELCQHKRFEKISIADITNICGLNRQTFYYHFTDKYDLLTWTYENDFFHCLADGITLENWDKHVLKMLESIKENADFYKNTVSADASILSFCFSKLTNSLFMDLFEKIDTNGAVNEADRVFYAEFFSYGCSGVLIKWITRGFKEAPETIANQLFRLAKDTEFLANSMYRENLEHHHHHH”, the protein production result is given as “not failed”.

Consider “MAETDPKTVQDLTSVVQTLLQQMQDKFQTMSDQIIGRIDDMSSRIDDLEKNIADLMTQAGVEELESENKIPATQKS”, for which the protein production result was “failed”.
